# Measured values as given in patent US20130344070A1 (SORRENTO THERAPEUTICS, published 2013).
# Experiments:
# [1] = biological target: T1, murine CCR2 (murine, UniProt P51683 1-373); assay: flow cytometry on WEHI 274.1 cells (murine CCR2), PE anti-human IgG
# T1 construct: whole, on cells; also called mouse CCR2; murine CCR2-expressing cells (WEHI 274.1)
# Description: In this example, WEHI 274.1 cells were resuspended in FACS Buffer (2% Fetal Bovine Serum in PBS) at 1×10⁶ cells and […] of cell suspension was aliquoted into the wells of a 96-well plate. Plated cells were spun down and the supernatant discarded. Cells were resuspended in 30 μl FACS Buffer containing serially diluted anti-CCR2 IgGs in triplicate. Plates were incubated for 1 hr at 4° C., then washed 2× with FACS Buffer. Cells were resuspended in 50 μl goat anti-human IgG (γ-chain specific)-PE conjugated secondary antibody (Southern Biotech #2040-09) diluted 1:500 in FACS Buffer, incubated for 30 min at 4° C. and then washed 1× with FACS Buffer. The cells were resuspended in a final volume of 30 μl FACS Buffer and analyzed using the Intellicyt Flow Cytometer. Median fluorescence in the FL-2H channel was determined using FlowJo software and EC₅₀ values were determined by plotting the data in GraphPad Prism and analyzed using a variable slope non-linear regression.
# [2] = biological target: T1, murine CCR2; assay: cell-based or functional assay
# [3] = biological target: T2, human CCR2 (CC-Chemokine Receptor 2) (human, UniProt P41597 1-374); assay: cell-based or functional assay
# [4] = biological target: T1, murine CCR2; assay: flow cytometry on murine CCR2-expressing cells (FIG. 2)
# [5] = biological target: T2, human CCR2 (CC-Chemokine Receptor 2); assay: cell-based or functional assay; remark: listed apart in the source
# [6] = biological target: T2, human CCR2 (CC-Chemokine Receptor 2); assay: flow cytometry on CHO-CCR2 cells (FIG. 1)
# Description: (§1) The data in FIG. 1 illustrates in vitro data for cellular binding EC₅₀ measurements. […] In this example, CHO-CCR2 cells were lifted from culture flasks using non-enzymatic Cell Dissociation Buffer—PBS based (Life Technologies #13151-014). Cells were resuspended in FACS Buffer (2% Fetal Bovine Serum in PBS) at 1×10⁶ cells/ml and 100 μl (1×10⁵ cells) were aliquoted into the wells of a 96-well plate. Plated cells were spun down and the supernatant discarded. Cells were resuspended in 50 μl FACS Buffer containing the indicated concentrations of CCR2 D1 IgG in triplicate (FIG. 1). Plates were incubated for 1 hr at 4° C., then washed 1× with FACS Buffer. Cells were resuspended in 50 μl goat anti-human IgG (γ-chain specific)-PE conjugated secondary antibody (Southern Biotech #2040-09) diluted 1:500 in FACS Buffer. Cells were further incubated for 30 min at 4° C. and then washed 1× with FACS Buffer. The cells were resuspended in a final volume of 25 μl FACS Buffer and analyzed using the Intellicyt Flow Cytometer. Median fluorescence in the FL-2H channel was determined using FlowJo software and EC₅₀ value was determined by plotting the data in GraphPad Prism and analyzing using a variable slope non-linear regression.
# [7] = biological target: T2, human CCR2 (CC-Chemokine Receptor 2); assay: cell-based or functional assay; remark: listed apart in the source
# [8] = biological target: T2, human CCR2 (CC-Chemokine Receptor 2); assay: cell-based or functional assay; remark: listed apart in the source
# [9] = biological target: T2, human CCR2 (CC-Chemokine Receptor 2); assay: flow cytometry on CHO-huCCR2 cells, PE anti-human IgG
# Description: as §1
# [10] = biological target: T1, murine CCR2; assay: cell-based or functional assay; remark: listed apart in the source
# T1 sequence (P51683 whole entry): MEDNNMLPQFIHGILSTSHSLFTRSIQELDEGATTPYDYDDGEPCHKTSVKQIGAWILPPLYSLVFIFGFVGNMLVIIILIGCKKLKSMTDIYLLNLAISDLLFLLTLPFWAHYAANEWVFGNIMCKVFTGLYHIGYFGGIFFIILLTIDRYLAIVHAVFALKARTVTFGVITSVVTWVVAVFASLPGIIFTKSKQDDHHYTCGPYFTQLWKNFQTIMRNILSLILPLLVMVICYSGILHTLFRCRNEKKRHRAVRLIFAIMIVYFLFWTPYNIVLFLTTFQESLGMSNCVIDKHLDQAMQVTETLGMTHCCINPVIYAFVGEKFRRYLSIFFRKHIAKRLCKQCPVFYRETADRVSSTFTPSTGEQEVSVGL
# T2 sequence (P41597 whole entry): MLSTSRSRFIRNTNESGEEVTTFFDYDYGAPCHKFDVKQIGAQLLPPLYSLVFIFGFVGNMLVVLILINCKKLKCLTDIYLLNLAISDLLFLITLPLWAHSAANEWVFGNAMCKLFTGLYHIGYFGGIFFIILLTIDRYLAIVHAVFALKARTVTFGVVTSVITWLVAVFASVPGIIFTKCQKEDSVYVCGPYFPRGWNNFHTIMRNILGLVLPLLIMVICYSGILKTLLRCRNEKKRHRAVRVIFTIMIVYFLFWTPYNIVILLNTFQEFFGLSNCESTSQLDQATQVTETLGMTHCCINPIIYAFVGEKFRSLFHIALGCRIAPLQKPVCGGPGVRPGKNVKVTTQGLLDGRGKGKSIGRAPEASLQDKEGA
Binder,EC50 [1] [nM],"IC50 in chemotaxis assay using human THP-1 cells, ligand MCP-1 (3 nM) [5] [nM]","IC50 in chemotaxis assay using human THP-1 cells, ligand MCP-4 (35 nM) [5] [nM]","IC50 in calcium flux assay using human THP-1 cells, ligand MCP-1 (2.5 nM) [7] [nM]","IC50 in calcium flux assay using human THP-1 cells, ligand MCP-3 (22 nM) [7] [nM]","IC50 in calcium flux assay using human THP-1 cells, ligand MCP-5 (0.43 nM) [7] [nM]",EC50 [9] [nM],"IC50 in chemotaxis assay using mouse WEHI cells, ligand mouse MCP-1 (0.7 nM) [10] [nM]",other results
"D1 (antibody, human IgG1, V domains shown, also called CCR2 D1 IgG; anti-CCR2 D1 antibody) VH: EVQLVQSGAEVKKPGASVKVSCKASGYTFTGYHMHWVRQAPGQGLEWMGWINPNSGVTKYAQKFQGRVTMTRDTSINTAYMELSRLRFDDTDVYYCATGGFGYWGEGTLVTVSS VL: LPVLTQPPSVSKGLRQTATLTCTGNSNNVGNQGAAWLQQHQGQPPKLLSYRNHNRPSGVSERFSPSRSGDTSSLTITGLQPEDEADYYCLAWDSSLRAFVFGTGTKLTVL",1.5,0.17,0.14,0.18,0.19,0.28,0.17,0.062,"IC50 of D1 on mMCP-1 induced WEHI 274.1 cell migration [2]: 66 nM; IC50 of D1 on MCP-1 (1 nM) induced primary human monocyte migration, another donor [3]: 3.48 nM; IC50 of D1 on MCP-1 (1 nM) induced primary human monocyte migration, first donor [3]: 1.02 nM; IC50 of D1 on MCP-1 (3 nM) induced THP-1 cell migration [3]: 0.194 nM; IC50 of D1 on MCP-1 (10 nM) induced THP-1 calcium mobilization [3]: 4.7 nM; IC50 of D1 on MCP-1 (10 nM) induced primary human monocyte calcium mobilization [3]: 2.8 nM; EC50 [4]: ~17 nM; IC50 in chemotaxis assay using human THP-1 cells, ligand MCP-2 (6.7 nM) [5]: 0.17 nM; IC50 in chemotaxis assay using human THP-1 cells, ligand MCP-3 (1.1 nM) [5]: 0.11 nM; IC50 in chemotaxis assay using human THP-1 cells, ligand MCP-5 (0.65 nM) [5]: 0.19 nM; EC50 [6]: 0.168 nM; IC50 on MCP-1 induced THP-1 cell migration [8]: 0.168 nM; IC50 on MCP-2 induced THP-1 cell migration [8]: 0.172 nM; IC50 on MCP-3 induced THP-1 cell migration [8]: 0.854 nM; IC50 on MCP-4 induced THP-1 cell migration [8]: 0.138 nM; IC50 on mouse MCP-5 induced THP-1 cell migration [8]: 0.19 nM"
"D1-1/45H8L1 (antibody, V domains shown, also called D1H1/45H8L1; D1-1B) VH: QVQLVQSGAEVKKPGASVKVSCKASGYTFTGYYMHWVRQAPGQGLEWMGWINPNSGVTKYAQKFQGRVTMTRDTSTSTVYMELSSLRSEDTAVYYCATGGFGYWGEGTLVTVSS VL: QAVLTQPPSVSKGLRQTATLTCTGNSNNVGNQGAAWLQQHQGQPPKLLSYRNHNRPSGVSERFSPSRSGDTSSLTITGLQPEDEADYYCLAWDSSLRAFVFGTGTKLTVL",2,0.28,0.08,0.37,0.19,0.27,0.15,0.012,
